From patent US20180155451A1 (published 2018)

B1: GpH7-A5/GpH7-B3 variant D265_11K/GpL16-k0 (antibody, human IgG1, kappa)
heavy 1: not shown
heavy 2: not shown
light: DIVMTQSPLSLPVTPGEPASISCQASESLVHSNRNTYLHWYLQKPGQSPQLLIYKVSNRFSGVPDRFSGSGSGTDFTLKISRVEAEDVGVYYCSQNTHVPPTFGQGTKVEIERTVAAPSVFIFPPSDEQLKSGTASVVCLLNNFYPREAKVQWKVDNALQSGNSQESVTEQDSKDSTYSLSSTLTLSKADYEKHKVYACEVTHQGLSSPVTKSFNRGEC
notes: He Ab: mutation in the GpH7-B3 H chain only; also called He Ab
B2: GpH7-A5/GpH7-B3 variant D265_12R/GpL16-k0 (antibody, human IgG1, kappa)
heavy 1: not shown
heavy 2: not shown
light: B1 light
notes: as for B1
B3: GpH7-A5/GpH7-B3 variant D265_13S/GpL16-k0 (antibody, human IgG1, kappa)
heavy 1: not shown
heavy 2: not shown
light: B1 light
notes: as for B1
B4: GpH7-A5/GpH7-B3 variant D265_14T/GpL16-k0 (antibody, human IgG1, kappa)
heavy 1: not shown
heavy 2: not shown
light: B1 light
notes: as for B1
B5: GpH7-A5/GpH7-B3 variant D265_15Y/GpL16-k0 (antibody, human IgG1, kappa)
heavy 1: not shown
heavy 2: not shown
light: B1 light
notes: as for B1
B6: GpH7-A5/GpH7-B3 variant D265_16H/GpL16-k0 (antibody, human IgG1, kappa)
heavy 1: not shown
heavy 2: not shown
light: B1 light
notes: as for B1
B7: GpH7-A5/GpH7-B3 variant D265_18N/GpL16-k0 (antibody, human IgG1, kappa)
heavy 1: not shown
heavy 2: not shown
light: B1 light
notes: as for B1
B8: GpH7-A5/GpH7-B3 variant D265_20W/GpL16-k0 (antibody, human IgG1, kappa)
heavy 1: not shown
heavy 2: not shown
light: B1 light
notes: as for B1
B9: GpH7-A5/GpH7-B3 variant I332_04F/GpL16-k0 (antibody, human IgG1, kappa)
heavy 1: not shown
heavy 2: not shown
light: B1 light
notes: as for B1
B10: GpH7-A5/GpH7-B3 variant K334_12R/GpL16-k0 (antibody, human IgG1, kappa)
heavy 1: not shown
heavy 2: not shown
light: B1 light
notes: as for B1
B11: GpH7-A5/GpH7-B3 variant L328_02A/GpL16-k0 (antibody, human IgG1, kappa)
heavy 1: not shown
heavy 2: not shown
light: B1 light
notes: as for B1
B12: GpH7-A5/GpH7-B3 variant L328_03V/GpL16-k0 (antibody, human IgG1, kappa)
heavy 1: not shown
heavy 2: not shown
light: B1 light
notes: as for B1
B13: GpH7-A5/GpH7-B3 variant L328_04F/GpL16-k0 (antibody, human IgG1, kappa)
heavy 1: not shown
heavy 2: not shown
light: B1 light
notes: as for B1
B14: GpH7-A5/GpH7-B3 variant L328_06M/GpL16-k0 (antibody, human IgG1, kappa)
heavy 1: not shown
heavy 2: not shown
light: B1 light
notes: as for B1
B15: GpH7-A5/GpH7-B3 variant L328_07I/GpL16-k0 (antibody, human IgG1, kappa)
heavy 1: not shown
heavy 2: not shown
light: B1 light
notes: as for B1
B16: GpH7-A5/GpH7-B3 variant L328_09D/GpL16-k0 (antibody, human IgG1, kappa)
heavy 1: not shown
heavy 2: not shown
light: B1 light
notes: as for B1
B17: GpH7-A5/GpH7-B3 variant L328_10E/GpL16-k0 (antibody, human IgG1, kappa)
heavy 1: not shown
heavy 2: not shown
light: B1 light
notes: as for B1
B18: GpH7-A5/GpH7-B3 variant L328_13S/GpL16-k0 (antibody, human IgG1, kappa)
heavy 1: not shown
heavy 2: not shown
light: B1 light
notes: as for B1
B19: GpH7-A5/GpH7-B3 variant L328_14T/GpL16-k0 (antibody, human IgG1, kappa)
heavy 1: not shown
heavy 2: not shown
light: B1 light
notes: as for B1
B20: GpH7-A5/GpH7-B3 variant L328_15Y/GpL16-k0 (antibody, human IgG1, kappa)
heavy 1: not shown
heavy 2: not shown
light: B1 light
notes: as for B1
B21: GpH7-A5/GpH7-B3 variant L328_19Q/GpL16-k0 (antibody, human IgG1, kappa)
heavy 1: not shown
heavy 2: not shown
light: B1 light
notes: as for B1
B22: GpH7-A5/GpH7-B3 variant D265_02A/GpL16-k0 (antibody, human IgG1, kappa)
heavy 1: not shown
heavy 2: not shown
light: B1 light
notes: as for B1
B23: GpH7-A5/GpH7-B3 variant D265_19Q/GpL16-k0 (antibody, human IgG1, kappa)
heavy 1: not shown
heavy 2: not shown
light: B1 light
notes: as for B1
B24: GpH7-A5/GpH7-B3 variant V266_20W/GpL16-k0 (antibody, human IgG1, kappa)
heavy 1: not shown
heavy 2: not shown
light: B1 light
notes: as for B1

These binders were tested against T1, FcγRIIIa extracellular domain with C-terminal His tag (human, UniProt P08637 17-208) (assay: SPR (Biacore), relative binding, GpH7-A5/GpH7-B3/GpL16-k0 = 100).
T1 construct: extracellular domain; also called 3a; FcgRIIIa; not shown: His tag at the C terminus
Procedure: (§1) Analysis of interaction between objective antibody and the FcγR was carried out using Biacore T100 (GE Healthcare). HBS-EP+ (GE Healthcare) was used as the running buffer, and the measurement temperature was set to 25° C. Chips produced by immobilizing the antigen peptide by the amine coupling method to a Series S Sencor Chip CM5 (GE Healthcare), or alternatively, chips produced by allowing preliminarily biotinylated antigen peptides to interact with and immobilize onto a Series S Sensor Chip SA (certified) (GE Healthcare) were used. Antibodies of interest were captured onto an antigen peptide-immobilized chip, and allowed to interact to each FcγR diluted with running buffer. To regenerate and repeatedly use the chip, the antibodies captured on the chip were washed off by reacting 10 mM glycine-HCl, pH 1.5.
(§2) The FcγR-binding activity of each antibody was assessed primarily using as an indicator the FcγR-binding activity and dissociation constant for FcγR.

T1 sequence (P08637 17-208): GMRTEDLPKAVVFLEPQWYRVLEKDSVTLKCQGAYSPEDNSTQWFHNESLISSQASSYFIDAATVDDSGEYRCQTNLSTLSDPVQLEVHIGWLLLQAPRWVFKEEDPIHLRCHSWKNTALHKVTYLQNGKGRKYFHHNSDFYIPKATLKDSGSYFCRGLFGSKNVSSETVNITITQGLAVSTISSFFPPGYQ

Binder	He/Con_3a
B1	2.5 % of control
B2	3.2 % of control
B3	3.9 % of control
B4	4.3 % of control
B5	-1.7 % of control
B6	13.6 % of control
B7	4.6 % of control
B8	-0.5 % of control
B9	97.6 % of control
B10	90.8 % of control
B11	79.1 % of control
B12	78.7 % of control
B13	79.3 % of control
B14	78.6 % of control
B15	84 % of control
B16	47.8 % of control
B17	53.4 % of control
B18	71.7 % of control
B19	75.3 % of control
B20	68.3 % of control
B21	81.1 % of control

These binders were tested against T2, FcγRIIb extracellular domain with C-terminal His tag (human, UniProt P31994 43-217) in the same assay as above.
T2 construct: extracellular domain; also called 2b; FcgRIIb; not shown: His tag at the C terminus
T2 sequence (looked up): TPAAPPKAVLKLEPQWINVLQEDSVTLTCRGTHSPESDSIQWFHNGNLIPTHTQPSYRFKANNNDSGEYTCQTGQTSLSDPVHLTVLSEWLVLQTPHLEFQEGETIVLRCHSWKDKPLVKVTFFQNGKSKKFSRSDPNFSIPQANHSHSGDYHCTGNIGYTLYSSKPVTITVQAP
Procedure: as §1, §2

Binder	He/Con_2b
B22	19.9 % of control
B1	14.9 % of control
B2	15 % of control
B3	11.3 % of control
B4	16 % of control
B5	0.6 % of control
B6	38.3 % of control
B7	6.1 % of control
B23	33.4 % of control
B8	1.1 % of control
B9	104 % of control
B10	111 % of control
B11	144 % of control
B12	126 % of control
B13	219 % of control
B14	142 % of control
B15	160 % of control
B16	199 % of control
B17	172 % of control
B18	149 % of control
B19	141 % of control
B20	193 % of control
B21	105 % of control
B24	71.9 % of control
